{"source": "patent US20130323302A1", "target": "recombinant VEGF (UniProt P15692)", "sequence (P15692 other isoform, or with tags, fused parts or gaps limits assumed)": "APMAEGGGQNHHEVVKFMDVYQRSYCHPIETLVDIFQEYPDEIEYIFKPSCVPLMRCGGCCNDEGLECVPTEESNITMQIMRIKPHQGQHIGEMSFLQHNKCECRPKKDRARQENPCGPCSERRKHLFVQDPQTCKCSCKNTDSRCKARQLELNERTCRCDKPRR", "test": "cell-based or functional assay"}
{"substance": "soluble Fms-related tyrosine kinase-1 (sFLT-1) protein, human, secreted by rAAV.sFlt-1-transduced 293 cells (from UniProt P17948 27-450)", "values": [{"measurement": "inhibition of VEGF-induced proliferation of HUVECs (MTT assay), 40 µL conditioned medium from rAAV.sFlt-1-transduced 293 cells", "value": 32, "unit": "%"}]}
